± gives the standard deviation of the averaged measurements.
Test: total protein half-life in vivo (active degradation + dilution); higher = more stable protein
[1] = E. coli NCM3722 delta-clpP delta-lon delta-hslV, growth: N-lim chemostat, doubling time 6 h
[2] = E. coli NCM3722 delta-clpP, growth: N-lim chemostat, doubling time 6 h
[3] = E. coli NCM3722 delta-hslV, growth: N-lim chemostat, doubling time 6 h
[4] = E. coli NCM3722 delta-lon, growth: N-lim chemostat, doubling time 6 h
[5] = E. coli NCM3722 delta-smpB, growth: N-lim chemostat, doubling time 6 h
[6] = wild type E. coli NCM3722, growth: C-lim chemostat, doubling time 3 h
[7] = wild type E. coli NCM3722, growth: C-lim chemostat, doubling time 6 h
[8] = wild type E. coli NCM3722, growth: C-lim chemostat, doubling time 12 h
[9] = wild type E. coli NCM3722, growth: N-lim chemostat, doubling time 6 h
[10] = wild type E. coli NCM3722, growth: N-lim chemostat, doubling time 12 h
[11] = wild type E. coli NCM3722, growth: P-lim chemostat, doubling time 6 h
[12] = wild type E. coli NCM3722, growth: P-lim chemostat, doubling time 12 h

With “MNIRRKNRLWIACAVLAGLALTIGLVLYALRSNIDLFYTPGEILYGKRETQQMPEVGQRLRVGGMVMPGSVQRDPNSLKVTFTIYDAEGSVDVSYEGILPDLFREGQGVVVQGELEKGNHILAKEVLAKHDENYTPPEVEKAMEANHRRPASVYKDPAS” the “total protein half-life in vivo” value [1] was 5.21 ± 0.82 h, the “total protein half-life in vivo” value [2] was 4.46 h and the “total protein half-life in vivo” value [3] was 4.36 ± 0.36 h. The “total protein half-life in vivo” value [4] was 4.62 ± 0.13 h, the “total protein half-life in vivo” value [5] was 4.65 ± 0.1 h and the “total protein half-life in vivo” value [6] was 2.91 ± 0.059 h. The “total protein half-life in vivo” value [7] was 6.09 ± 0.43 h, the “total protein half-life in vivo” value [8] was 8.92 ± 0.19 h and the “total protein half-life in vivo” value [9] was 4.31 ± 0.63 h. For the same sequence, the “total protein half-life in vivo” value [10] was 9.42 ± 2.7 h, the “total protein half-life in vivo” value [11] was 4.67 h and the “total protein half-life in vivo” value [12] was 10.05 ± 0.046 h.

For “MTIHKKGQAHWEGDIKRGKGTVSTESGVLNQQPYGFNTRFEGEKGTNPEELIGAAHAACFSMALSLMLGEAGFTPTSIDTTADVSLDKVDAGFAITKIALKSEVAVPGIDASTFDGIIQKAKAGCPVSQVLKAEITLDYQLKS [P0C0L2]”, the “total protein half-life in vivo” value [1] was 5.71 ± 0.14 h, the “total protein half-life in vivo” value [2] was 5.45 ± 0.62 h and the “total protein half-life in vivo” value [3] was 5.59 ± 0.41 h. The “total protein half-life in vivo” value [4] was 5.84 ± 0.083 h, the “total protein half-life in vivo” value [5] was 4.963 ± 0.042 h and the “total protein half-life in vivo” value [6] was 3.08 ± 0.62 h. For the same sequence, the “total protein half-life in vivo” value [7] was 6.63 ± 0.81 h, the “total protein half-life in vivo” value [8] was 12.1 ± 0.22 h and the “total protein half-life in vivo” value [9] was 5.3 ± 0.28 h. The “total protein half-life in vivo” value [10] was 9.59 ± 0.6 h, the “total protein half-life in vivo” value [11] was 5.84 ± 0.082 h and the “total protein half-life in vivo” value [12] was 12.6 ± 0.93 h.

In the case of “MVKKAIVTAMAVISLFTLMGCNNRAEVDTLSPAQAAELKPMPQSWRGVLPCADCEGIETSLFLEKDGTWVMNERYLGAREEPSSFASYGTWARTADKLVLTDSKGEKSYYRAKGDALEMLDREGNPIESQFNYTLEAAQSSLPMTPMTLRGMYFYMADAATFTDCATGKRFMVANNAELERSYLAARGHSEKPVLLSVEGHFTLEGNPDTGAPTKVLAPDTAGKFYPNQDCSSLGQ”, the “total protein half-life in vivo” value [1] is reported as 5.34 ± 0.088 h, the “total protein half-life in vivo” value [2] is reported as 5.68 ± 0.11 h and the “total protein half-life in vivo” value [3] is reported as 5.99 ± 0.23 h. For the same sequence, the “total protein half-life in vivo” value [4] was 6.787 ± 0.0084 h, the “total protein half-life in vivo” value [5] was 5.976 ± 0.058 h and the “total protein half-life in vivo” value [6] was 3.13 ± 0.2 h. For the same sequence, the “total protein half-life in vivo” value [7] was 6.4 ± 0.79 h, the “total protein half-life in vivo” value [8] was 10.7 ± 0.25 h and the “total protein half-life in vivo” value [9] was 6.083 ± 0.0085 h. The “total protein half-life in vivo” value [10] was 11.5 ± 0.38 h and the “total protein half-life in vivo” value [11] was 5.63 ± 0.41 h.

For “MIKATDRKLVVGLEIGTAKVAALVGEVLPDGMVNIIGVGSCPSRGMDKGGVNDLESVVKCVQRAIDQAELMADCQISSVYLALSGKHISCQNEIGMVPISEEEVTQEDVENVVHTAKSVRVRDEHRVLHVIPQEYAIDYQEGIKNPVGLSGVRMQAKVHLITCHNDMAKNIVKAVERCGLKVDQLIFAGLASSYSVLTEDERELGVCVVDIGGGTMDIAVYTGGALRHTKVIPYAGNVVTSDIAYAFGTPPSDAEAIKVRHGCALGSIVGKDESVEVPSVGGRPPRSLQRQTLAEVIEPRYTELLNLVNEEILQLQEKLRQQGVKHHLAAGIVLTGGAAQIEGLAACAQRVFHTQVRIGAPLNITGLTDYAQEPYYSTAVGLLHYGKESHLNGEAEVEKRVTASVGSWIKRLNSWLRKEF [P0ABH0]”, the “total protein half-life in vivo” value [1] was 6.03 ± 0.16 h, the “total protein half-life in vivo” value [2] was 6.41 ± 0.51 h and the “total protein half-life in vivo” value [3] was 6.33 ± 0.27 h. For the same sequence, the “total protein half-life in vivo” value [4] was 6.06 ± 0.5 h, the “total protein half-life in vivo” value [5] was 5.42 ± 0.13 h and the “total protein half-life in vivo” value [6] was 3.04 ± 0.12 h. The “total protein half-life in vivo” value [7] was 5.738 ± 0.047 h, the “total protein half-life in vivo” value [8] was 10 ± 0.52 h and the “total protein half-life in vivo” value [9] was 5.48 ± 0.26 h. The “total protein half-life in vivo” value [10] was 10.8 ± 0.71 h, the “total protein half-life in vivo” value [11] was 5.868 ± 0.02 h and the “total protein half-life in vivo” value [12] was 11.3 ± 0.42 h.

In the case of “MQILLANPRGFCAGVDRAISIVENALAIYGAPIYVRHEVVHNRYVVDSLRERGAIFIEQISEVPDGAILIFSAHGVSQAVRNEAKSRDLTVFDATCPLVTKVHMEVARASRRGEESILIGHAGHPEVEGTMGQYSNPEGGMYLVESPDDVWKLTVKNEEKLSFMTQTTLSVDDTSDVIDALRKRFPKIVGPRKDDICYATTNRQEAVRALAEQAEVVLVVGSKNSSNSNRLAELAQRMGKRAFLIDDAKDIQEEWVKEVKCVGVTAGASAPDILVQNVVARLQQLGGGEAIPLEGREENIVFEVPKELRVDIREVD”, the “total protein half-life in vivo” value [1] is reported as 5.14 ± 0.44 h, the “total protein half-life in vivo” value [2] is reported as 3.68 ± 0.91 h and the “total protein half-life in vivo” value [3] is reported as 2.78 ± 0.23 h. The “total protein half-life in vivo” value [4] was 3.1 ± 0.29 h, the “total protein half-life in vivo” value [5] was 2.44 ± 0.24 h and the “total protein half-life in vivo” value [6] was 2.5 ± 0.044 h. The “total protein half-life in vivo” value [7] was 3.72 ± 0.34 h, the “total protein half-life in vivo” value [8] was 5.14 ± 0.29 h and the “total protein half-life in vivo” value [9] was 2.69 ± 0.3 h. For the same sequence, the “total protein half-life in vivo” value [10] was 3.69 ± 0.062 h, the “total protein half-life in vivo” value [11] was 2.89 ± 0.034 h and the “total protein half-life in vivo” value [12] was 5.25 ± 0.3 h.

In the case of “MLQIVGALILLIAGFAILRLLFRALISTASALAGLILLCLFGPALLAGYITERITRLFHIRWLAGVFLTIAGMIISFMWGLDGKHIALEAHTFDSVKFILTTALAGGLLAVPLQIKNIQQNGITPEDISKEINGYYCCFYTAFFLMACSACAPLIALQYDISPSLMWWGGLLYWLAALVTLLWAASQIQALKKLTCAISQTLEEQPVLNSKSWLTSLQNDYSLPDSLTERIWLTLISQRISRGELREFELADGNWLLNNAWYERNMAGFNEQLKENLSFTPDELKTLFRNRLNLSPEANDDFLDRCLDGGDWYPFSEGRRFVSFHHVDELRICASCGLTEVHHAPENHKPDPEWYCSSLCRETETLCQEIYERPYNSFISDATANGLILMKLPETWSTNEKMFASGGQGHGFAAERGNHIVDRVRLKNARILGDNNARNGADRLVSGTEIQTKYCSTAARSVGAAFDGQNGQYRYMGNNGPMQLEVPRDQYAGAVETMRNKIREGKVEER”, the “total protein half-life in vivo” value [2] is reported as 0.668 h, the “total protein half-life in vivo” value [10] is reported as 0.674 h and the “total protein half-life in vivo” value [12] is reported as 2.58 ± 0.79 h.

For “MKVTLPEFERAGVMVVGDVMLDRYWYGPTSRISPEAPVPVVKVNTIEERPGGAANVAMNIASLGANARLVGLTGIDDAARALSKSLADVNVKCDFVSVPTHPTITKLRVLSRNQQLIRLDFEEGFEGVDPQPLHERINQALSSIGALVLSDYAKGALASVQQMIQLARKAGVPVLIDPKGTDFERYRGATLLTPNLSEFEAVVGKCKTEEEIVERGMKLIADYELSALLVTRSEQGMSLLQPGKAPLHMPTQAQEVYDVTGAGDTVIGVLAATLAAGNSLEEACFFANAAAGVVVGKLGTSTVSPIELENAVRGRADTGFGVMTEEELKLAVAAARKRGEKVVMTNGVFDILHAGHVSYLANARKLGDRLIVAVNSDASTKRLKGDSRPVNPLEQRMIVLGALEAVDWVVSFEEDTPQRLIAGILPDLLVKGGDYKPEEIAGSKEVWANGGEVLVLNFEDGCSTTNIIKKIQQDKKG”, the “total protein half-life in vivo” value [1] was 5.6 ± 0.12 h, the “total protein half-life in vivo” value [2] was 5.98 ± 1.2 h and the “total protein half-life in vivo” value [3] was 5.19 ± 0.094 h. For the same sequence, the “total protein half-life in vivo” value [4] was 5.89 ± 0.14 h, the “total protein half-life in vivo” value [5] was 5.15 ± 0.11 h and the “total protein half-life in vivo” value [6] was 3.1 ± 0.062 h. The “total protein half-life in vivo” value [7] was 5.74 ± 0.21 h, the “total protein half-life in vivo” value [8] was 11.032 ± 0.011 h and the “total protein half-life in vivo” value [9] was 5.3 ± 0.34 h. For the same sequence, the “total protein half-life in vivo” value [10] was 9.17 ± 0.1 h, the “total protein half-life in vivo” value [11] was 5.82 ± 0.12 h and the “total protein half-life in vivo” value [12] was 12.3 ± 0.15 h.

With “MSDDNSHSSDTISNKKGFFSLLLSQLFHGEPKNRDELLALIRDSGQNDLIDEDTRDMLEGVMDIADQRVRDIMIPRSQMITLKRNQTLDECLDVIIESAHSRFPVISEDKDHIEGILMAKDLLPFMRSDAEAFSMDKVLRQAVVVPESKRVDRMLKEFRSQRYHMAIVIDEFGGVSGLVTIEDILELIVGEIEDEYDEEDDIDFRQLSRHTWTVRALASIEDFNEAFGTHFSDEEVDTIGGLVMQAFGHLPARGETIDIDGYQFKVAMADSRRIIQVHVKIPDDSPQPKLDE [P0AE78]” the “total protein half-life in vivo” value [1] was 5.6 ± 0.81 h, the “total protein half-life in vivo” value [2] was 4.83 ± 0.09 h and the “total protein half-life in vivo” value [3] was 5.25 ± 0.99 h. The “total protein half-life in vivo” value [4] was 5.54 ± 0.81 h, the “total protein half-life in vivo” value [5] was 4.73 ± 0.13 h and the “total protein half-life in vivo” value [6] was 2.91 ± 0.18 h. The “total protein half-life in vivo” value [7] was 5.83 ± 0.67 h, the “total protein half-life in vivo” value [8] was 10 ± 0.62 h and the “total protein half-life in vivo” value [9] was 4.6 ± 0.091 h. For the same sequence, the “total protein half-life in vivo” value [10] was 8.26 ± 0.13 h, the “total protein half-life in vivo” value [11] was 5.28 ± 0.17 h and the “total protein half-life in vivo” value [12] was 9.77 ± 1.1 h.

Source: the supplement of paper PMC11246515
